Residue numbers refer to the chain shown, from its start. Numbered stars: 1 amine (or outer) side, 2 acyl side, 3 side chain; on linkers, the order of the positions; unused ones are H or OH. Bridge positions count the residues as written; N and C are the ends. * marks the point of attachment. C20 diacid = O=C(O)CCCCCCCCCCCCCCCCCCC(=O)*; γGlu = O=C(O)[C@H](CCC(=O)[*:2])N[*:1]; AEEA = NCCOCCOCC(=O)O
B1: N^α1-[(4S)-4-carboxy-4-(19-carboxynonadecanoylamino)butanoyl]-[Glu14,Arg17,Pro21,Pro27]-h-amylin (peptide)
peptide: KCNTATCATQRLAEFLRHSSPNFGAIPSSTNVGSNTY
modifications: C20 diacid-gGlu on the alpha amino group of the N-terminal residue; disulfide bridge Cys2-Cys7; C-terminal amide
notes: also called compound 9
B2: N^α1-[2-[2-[2-[[2-[2-[2-[[(4S)-4-carboxy-4-(19-carboxynonadecanoylamino)butanoyl]amino]ethoxy]ethoxy]acetyl]amino]ethoxy]ethoxy]acetyl]-[Glu14,Arg17,Pro21,Pro27 … (peptide)
peptide: {C20 diacid-γGlu-AEEA-AEEA}-KCNTATCATQRLAEFLRHSSPNFGAIPSSTNVGSNTP-NH2
modifications: disulfide 2-7
SMILES: CC[C@H](C)[C@H](NC(=O)[C@H](C)NC(=O)CNC(=O)[C@H](Cc1ccccc1)NC(=O)[C@H](CC(N)=O)NC(=O)[C@@H]1CCCN1C(=O)[C@H](CO)NC(=O)[C@H](CO)NC(=O)[C@H](Cc1c[nH]cn1)NC(=O)[C@H](CCCNC(=N)N)NC(=O)[C@H](CC(C)C)NC(=O)[C@H](Cc1ccccc1)NC(=O)[C@H](CCC(=O)O)NC(=O)[C@H](C)NC(=O)[C@H](CC(C)C)NC(=O)[C@H](CCCNC(=N)N)NC(=O)[C@H](CCC(N)=O)NC(=O)[C@@H](NC(=O)[C@H](C)NC(=O)[C@@H]1CSSC[C@H](NC(=O)[C@H](CCCCN)NC(=O)COCCOCCNC(=O)COCCOCCNC(=O)CC[C@H](NC(=O)CCCCCCCCCCCCCCCCCCC(=O)O)C(=O)O)C(=O)N[C@@H](CC(N)=O)C(=O)N[C@@H]([C@@H](C)O)C(=O)N[C@@H](C)C(=O)N[C@@H]([C@@H](C)O)C(=O)N1)[C@@H](C)O)C(=O)N1CCC[C@H]1C(=O)N[C@@H](CO)C(=O)N[C@@H](CO)C(=O)N[C@H](C(=O)N[C@@H](CC(N)=O)C(=O)N[C@H](C(=O)NCC(=O)N[C@@H](CO)C(=O)N[C@@H](CC(N)=O)C(=O)N[C@H](C(=O)N1CCC[C@H]1C(N)=O)[C@@H](C)O)C(C)C)[C@@H](C)O
notes: also called compound 20
B3: N^α1-[(4S)-4-carboxy-4-(19-carboxynonadecanoylamino)butanoyl]-[Arg17,Pro21,Pro27,Arg34]-h-amylin (peptide)
peptide: B1 peptide with E14N, S34R
modifications: C20 diacid-gGlu on the alpha amino group of the N-terminal residue; disulfide bridge Cys2-Cys7; C-terminal amide
notes: also called compound 39
B4: N^α1-[(4S)-4-carboxy-4-(19-carboxynonadecanoylamino)butanoyl]-[Arg17,Pro21,Pro27,Glu35]-h-amylin (peptide)
peptide: B1 peptide with E14N, N35E
modifications: C20 diacid-gGlu on the alpha amino group of the N-terminal residue; disulfide bridge Cys2-Cys7; C-terminal amide
notes: also called compound 23
B5: N^α1-[(4S)-4-carboxy-4-(19-carboxynonadecanoylamino)butanoyl]-[Arg17,Pro21,Pro27,His34]-h-amylin (peptide)
peptide: B1 peptide with E14N, S34H
modifications: C20 diacid-gGlu on the alpha amino group of the N-terminal residue; disulfide bridge Cys2-Cys7; C-terminal amide
notes: also called compound 40
B6: N^α1-[(4S)-4-carboxy-4-(19-carboxynonadecanoylamino)butanoyl]-[Arg17,Pro21,Pro27,Pro31,Glu35]-h-amylin (peptide)
peptide: {C20 diacid-γGlu}-KCNTATCATQRLANFLRHSSPNFGAIPSSTPVGSETY-NH2
modifications: disulfide 2-7
SMILES: CC[C@H](C)[C@H](NC(=O)[C@H](C)NC(=O)CNC(=O)[C@H](Cc1ccccc1)NC(=O)[C@H](CC(N)=O)NC(=O)[C@@H]1CCCN1C(=O)[C@H](CO)NC(=O)[C@H](CO)NC(=O)[C@H](Cc1c[nH]cn1)NC(=O)[C@H](CCCNC(=N)N)NC(=O)[C@H](CC(C)C)NC(=O)[C@H](Cc1ccccc1)NC(=O)[C@H](CC(N)=O)NC(=O)[C@H](C)NC(=O)[C@H](CC(C)C)NC(=O)[C@H](CCCNC(=N)N)NC(=O)[C@H](CCC(N)=O)NC(=O)[C@@H](NC(=O)[C@H](C)NC(=O)[C@@H]1CSSC[C@H](NC(=O)[C@H](CCCCN)NC(=O)CC[C@H](NC(=O)CCCCCCCCCCCCCCCCCCC(=O)O)C(=O)O)C(=O)N[C@@H](CC(N)=O)C(=O)N[C@@H]([C@@H](C)O)C(=O)N[C@@H](C)C(=O)N[C@@H]([C@@H](C)O)C(=O)N1)[C@@H](C)O)C(=O)N1CCC[C@H]1C(=O)N[C@@H](CO)C(=O)N[C@@H](CO)C(=O)N[C@H](C(=O)N1CCC[C@H]1C(=O)N[C@H](C(=O)NCC(=O)N[C@@H](CO)C(=O)N[C@@H](CCC(=O)O)C(=O)N[C@H](C(=O)N[C@@H](Cc1ccc(O)cc1)C(N)=O)[C@@H](C)O)C(C)C)[C@@H](C)O
notes: also called compound 28
B7: N^α1-[(4S)-4-carboxy-4-(19-carboxynonadecanoylamino)butanoyl]-[Asp14,Arg17,Pro21,Pro27,Pro37]-h-amylin (peptide)
peptide: {C20 diacid-γGlu}-KCNTATCATQRLADFLRHSSPNFGAIPSSTNVGSNTP-NH2
modifications: disulfide 2-7
SMILES: CC[C@H](C)[C@H](NC(=O)[C@H](C)NC(=O)CNC(=O)[C@H](Cc1ccccc1)NC(=O)[C@H](CC(N)=O)NC(=O)[C@@H]1CCCN1C(=O)[C@H](CO)NC(=O)[C@H](CO)NC(=O)[C@H](Cc1c[nH]cn1)NC(=O)[C@H](CCCNC(=N)N)NC(=O)[C@H](CC(C)C)NC(=O)[C@H](Cc1ccccc1)NC(=O)[C@H](CC(=O)O)NC(=O)[C@H](C)NC(=O)[C@H](CC(C)C)NC(=O)[C@H](CCCNC(=N)N)NC(=O)[C@H](CCC(N)=O)NC(=O)[C@@H](NC(=O)[C@H](C)NC(=O)[C@@H]1CSSC[C@H](NC(=O)[C@H](CCCCN)NC(=O)CC[C@H](NC(=O)CCCCCCCCCCCCCCCCCCC(=O)O)C(=O)O)C(=O)N[C@@H](CC(N)=O)C(=O)N[C@@H]([C@@H](C)O)C(=O)N[C@@H](C)C(=O)N[C@@H]([C@@H](C)O)C(=O)N1)[C@@H](C)O)C(=O)N1CCC[C@H]1C(=O)N[C@@H](CO)C(=O)N[C@@H](CO)C(=O)N[C@H](C(=O)N[C@@H](CC(N)=O)C(=O)N[C@H](C(=O)NCC(=O)N[C@@H](CO)C(=O)N[C@@H](CC(N)=O)C(=O)N[C@H](C(=O)N1CCC[C@H]1C(N)=O)[C@@H](C)O)C(C)C)[C@@H](C)O
notes: also called compound 10
B8: N^α1-[(4S)-4-carboxy-4-(19-carboxynonadecanoylamino)butanoyl]-[Glu14,Arg17,Pro21,Pro25,Pro28,Pro29,Pro37]-h-amylin (peptide)
peptide: {C20 diacid-γGlu}-KCNTATCATQRLAEFLRHSSPNFGPILPPTNVGSNTP-NH2
modifications: disulfide 2-7
SMILES: CC[C@H](C)[C@H](NC(=O)[C@@H]1CCCN1C(=O)CNC(=O)[C@H](Cc1ccccc1)NC(=O)[C@H](CC(N)=O)NC(=O)[C@@H]1CCCN1C(=O)[C@H](CO)NC(=O)[C@H](CO)NC(=O)[C@H](Cc1c[nH]cn1)NC(=O)[C@H](CCCNC(=N)N)NC(=O)[C@H](CC(C)C)NC(=O)[C@H](Cc1ccccc1)NC(=O)[C@H](CCC(=O)O)NC(=O)[C@H](C)NC(=O)[C@H](CC(C)C)NC(=O)[C@H](CCCNC(=N)N)NC(=O)[C@H](CCC(N)=O)NC(=O)[C@@H](NC(=O)[C@H](C)NC(=O)[C@@H]1CSSC[C@H](NC(=O)[C@H](CCCCN)NC(=O)CC[C@H](NC(=O)CCCCCCCCCCCCCCCCCCC(=O)O)C(=O)O)C(=O)N[C@@H](CC(N)=O)C(=O)N[C@@H]([C@@H](C)O)C(=O)N[C@@H](C)C(=O)N[C@@H]([C@@H](C)O)C(=O)N1)[C@@H](C)O)C(=O)N[C@@H](CC(C)C)C(=O)N1CCC[C@H]1C(=O)N1CCC[C@H]1C(=O)N[C@H](C(=O)N[C@@H](CC(N)=O)C(=O)N[C@H](C(=O)NCC(=O)N[C@@H](CO)C(=O)N[C@@H](CC(N)=O)C(=O)N[C@H](C(=O)N1CCC[C@H]1C(N)=O)[C@@H](C)O)C(C)C)[C@@H](C)O
notes: also called compound 4

What follows are binders tested against T1, human calcitonin receptor (human, UniProt P30988 25-474) (assay: ratio of IC50 at hCTR to IC50 at the human amylin receptor (reference)).
T1 construct: whole, on cells; also called hCTR; hCT
T1 sequence (looked up): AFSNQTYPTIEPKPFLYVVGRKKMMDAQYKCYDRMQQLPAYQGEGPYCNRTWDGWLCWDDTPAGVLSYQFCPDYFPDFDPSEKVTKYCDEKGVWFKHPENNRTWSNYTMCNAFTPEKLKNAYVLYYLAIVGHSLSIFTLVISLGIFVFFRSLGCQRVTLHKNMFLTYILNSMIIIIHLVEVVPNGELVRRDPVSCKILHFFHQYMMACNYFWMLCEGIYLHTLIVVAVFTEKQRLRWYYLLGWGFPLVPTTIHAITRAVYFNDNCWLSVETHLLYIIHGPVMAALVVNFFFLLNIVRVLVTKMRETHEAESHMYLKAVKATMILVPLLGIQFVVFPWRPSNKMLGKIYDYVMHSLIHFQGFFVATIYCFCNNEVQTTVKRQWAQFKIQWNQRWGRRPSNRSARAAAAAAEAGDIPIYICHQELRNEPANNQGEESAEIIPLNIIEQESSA
Experimental: The resulting pellet was resuspended, homogenized and centrifuged (20.000 rpm, 15 min) in a buffer containing 20 mM Na-HEPES and 0.1 mM EDTA (pH 7.4, buffer 2). The resulting pellet was resuspended in buffer 2 and protein concentration was measured (BCA protein Assay, Pierce). The homogenate was kept cold during the whole procedure. The membranes were kept at −80° C. until use. The assay was performed in a 384 well Optiplate (PerkinElmer) in a total volume of 40 ul. Membranes were mixed with SPA beads. Final concentration of membranes 35 ng/μL final and SPA beads was 0.05 mg/well. Test-compounds were dissolved in DMSO and further diluted in assay buffer (50 mM Hepes, pH 7.4, 1 mM CaCl2, 5 mM MgCl₂, 0.1% OA and 0.02% Tween20). […] The final mixture was incubated with shaking at 400 rpm for 120 min at 25° C. prior to centrifugation (1500 rpm, 10 min). Samples were analyzed on TopCounter™ (Packard). The IC₅₀ was calculated using (one site binding competition analysis) GraphPad Prism5 as a measure of receptor affinity.
Membranes were prepared in the following way; the cells were rinsed with PBS and incubated with Versene for approximately 5 min before harvesting. The cells were flushed with PBS and the cell-suspension was centrifuged for 5 min at 1000 rpm. Cells were homogenized (Ultrathurrax) in a buffer containing 20 mM Na-HEPES and 10 mM EDTA (pH 7.4) and centrifuged at 20.000 rpm for 15 min. The resulting pellet was resuspended, homogenized and centrifuged (20.000 rpm, 15 min) in a buffer containing 20 mM Na-HEPES and 0.1 mM EDTA (pH 7.4, buffer 2). The resulting pellet was resuspended in buffer 2 and protein concentration was measured (BCA protein Assay, Pierce). The homogenate was kept cold during the whole procedure. The membranes were kept at −80° C. until use. Assay was performed in a 384 well Optiplate (PerkinElmer) in a total volume of 40 ul. Membranes were mixed with SPA beads.

Binder	Ratio hCT/hAmylin binding
B1	8
B2	3.6
B3	29
B4	25
B5	31.1
B6	20.5
B7	1.2
B8	2.1

The binders below were run against T1, human calcitonin receptor (assay: SPA competition binding, membranes with human calcitonin receptor, displacement of 125I-calcitonin (Assay VII)).
Experimental: Membranes were prepared in the following way; the cells were rinsed with PBS and incubated with Versene for approximately 5 min before harvesting. The cells were flushed with PBS and the cell-suspension was centrifuged for 5 min at 1000 rpm. Cells were homogenized (Ultrathurrax) in a buffer containing 20 mM Na-HEPES and 10 mM EDTA (pH 7.4) and centrifuged at 20.000 rpm for 15 min. The resulting pellet was resuspended, homogenized and centrifuged (20.000 rpm, 15 min) in a buffer containing 20 mM Na-HEPES and 0.1 mM EDTA (pH 7.4, buffer 2). The resulting pellet was resuspended in buffer 2 and protein concentration was measured (BCA protein Assay, Pierce). The homogenate was kept cold during the whole procedure. The membranes were kept at −80° C. until use. Assay was performed in a 384 well Optiplate (PerkinElmer) in a total volume of 40 ul. Membranes were mixed with SPA beads. Final concentration of membranes 35 ng/μL final and Final concentration of SPA beads was 0.05 mg/well. Test-compounds were dissolved in DMSO and further diluted in assay buffer (50 mM Hepes, pH 7.4, 1 mM CaCl2, 5 mM MgCl₂, 0.1% OA and 0.02% Tween20). […] The final mixture was incubated for 120 min with shaking at 400 rpm at 25° C. prior to centrifugation (1500 rpm, 10 min). Samples were analyzed on TopCounter™ (Packard). The […] was calculated using (one site binding competition analysis) GraphPad Prism5 as a measure of receptor affinity.

Binder	IC50 [nM]
B1	1.14
B2	0.787
B3	19.3
B4	21.8
B5	17.1
B6	12.5
B7	0.099
B8	0.688
